# Data: IntAct's records for PubMed 9311911
# B1: Protein STE5 (Saccharomyces cerevisiae), P32917 (parent)
# chain: MMETPTDNIVSPFHNFGSSTQYSGTLSRTPNQIIELEKPSTLSPLSRGKKWTEKLARFQRSSAKKKRFSPSPISSSTFSFSPKSRVTSSNSSGNEDGNLMNTPSTVSTDYLPQHPHRTSSLPRPNSNLFHASNSNLSRANEPPRAENLSDNIPPKVAPFGYPIQRTSIKKSFLNASCTLCDEPISNRRKGEKIIELACGHLSHQECLIISFGTTSKADVRALFPFCTKCKKDTNKAVQCIPENDELKDILISDFLIHKIPDSELSITPQSRFPPYSPLLPPFGLSYTPVERQTIYSQAPSLNPNLILAAPPKERNQIPQKKSNYTFLHSPLGHRRIPSGANSILADTSVALSANDSISAVSNSVRAKDDETKTTLPLLRSYFIQILLNNFQEELQDWRIDGDYGLLRLVDKLMISKDGQRYIQCWCFLFEDAFVIAEVDNDVDVLEIRLKNLEVFTPIANLRMTTLEASVLKCTLNKQHCADLSDLYIVQNINSDESTTVQKWISGILNQDFVFNEDNITSTLPILPIIKNFSKDVGNGRHETSTFLGLINPNKVVEVGNVHDNDTVIIRRGFTLNSGECSRQSTVDSIQSVLTTISSILSLKREKPDNLAIILQIDFTKLKEEDSLIVVYNSLKALTIKFARLQFCFVDRNNYVLDYGSVLHKIDSLDSISNLKSKSSSTQFSPIWLKNTLYPENIHEHLGIVAVSNSNMEAKKSILFQDYRCFTSFGRRRPNELKIKVGYLNVDYSDKIDELVEASSWTFVLETLCYSFGLSFDEHDDDDEEDNDDSTDNELDNSSGSLSDAESTTTIHIDSPFDNENATANMVNDRNLLTEGEHSNIENLETVASSVQPALIPNIRFSLHSEEEGTNENENENDMPVLLLSDMDKGIDGITRRSSFSSLIESGNNNCPLHMDYI
# partner: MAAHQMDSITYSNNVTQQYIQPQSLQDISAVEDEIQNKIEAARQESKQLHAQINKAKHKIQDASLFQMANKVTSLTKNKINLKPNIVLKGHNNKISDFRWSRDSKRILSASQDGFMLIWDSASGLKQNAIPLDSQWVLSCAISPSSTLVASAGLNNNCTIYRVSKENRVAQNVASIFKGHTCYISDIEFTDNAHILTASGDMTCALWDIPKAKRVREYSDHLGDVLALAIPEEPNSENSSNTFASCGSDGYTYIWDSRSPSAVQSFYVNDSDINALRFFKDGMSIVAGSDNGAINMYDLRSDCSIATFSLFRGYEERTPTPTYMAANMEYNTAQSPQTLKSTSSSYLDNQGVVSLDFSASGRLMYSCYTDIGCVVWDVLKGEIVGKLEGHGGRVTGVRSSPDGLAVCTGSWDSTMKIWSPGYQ
# Variants of: B1
# Conditions: with gbb_yeast STE4, P18851
row,Variant,effect of a mutation on the interaction
1,C177A;C180A,disrupting interaction
